Measurements reported in US20220332804A1 (CSL INNOVATION, published 2022).

T1: mouse C2 (mouse, UniProt P21180 19-760, limits assumed)
T1 sequence (looked up): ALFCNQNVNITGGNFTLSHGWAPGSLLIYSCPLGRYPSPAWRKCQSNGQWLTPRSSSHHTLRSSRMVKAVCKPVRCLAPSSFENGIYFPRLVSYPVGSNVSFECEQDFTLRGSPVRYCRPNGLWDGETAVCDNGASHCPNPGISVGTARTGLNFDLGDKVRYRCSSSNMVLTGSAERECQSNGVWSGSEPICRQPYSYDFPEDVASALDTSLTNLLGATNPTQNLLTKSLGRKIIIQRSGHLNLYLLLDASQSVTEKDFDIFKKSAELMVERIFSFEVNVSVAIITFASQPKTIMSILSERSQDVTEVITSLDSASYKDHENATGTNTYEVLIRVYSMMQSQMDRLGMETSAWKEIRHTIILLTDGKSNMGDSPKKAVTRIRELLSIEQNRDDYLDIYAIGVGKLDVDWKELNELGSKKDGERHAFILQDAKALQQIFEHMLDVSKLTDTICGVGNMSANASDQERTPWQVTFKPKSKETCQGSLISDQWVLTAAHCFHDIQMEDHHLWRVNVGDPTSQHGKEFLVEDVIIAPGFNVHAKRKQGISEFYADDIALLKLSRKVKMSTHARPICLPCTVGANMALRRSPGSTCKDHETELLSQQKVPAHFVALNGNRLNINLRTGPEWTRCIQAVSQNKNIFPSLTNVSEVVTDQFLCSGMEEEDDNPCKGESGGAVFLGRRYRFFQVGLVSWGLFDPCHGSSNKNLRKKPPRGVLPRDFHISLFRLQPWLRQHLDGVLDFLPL

T2: cynomolgus monkey C2 (cynomolgus monkey, UniProt G8F3W0 21-752)
T2 construct: also called cyno C2
T2 sequence: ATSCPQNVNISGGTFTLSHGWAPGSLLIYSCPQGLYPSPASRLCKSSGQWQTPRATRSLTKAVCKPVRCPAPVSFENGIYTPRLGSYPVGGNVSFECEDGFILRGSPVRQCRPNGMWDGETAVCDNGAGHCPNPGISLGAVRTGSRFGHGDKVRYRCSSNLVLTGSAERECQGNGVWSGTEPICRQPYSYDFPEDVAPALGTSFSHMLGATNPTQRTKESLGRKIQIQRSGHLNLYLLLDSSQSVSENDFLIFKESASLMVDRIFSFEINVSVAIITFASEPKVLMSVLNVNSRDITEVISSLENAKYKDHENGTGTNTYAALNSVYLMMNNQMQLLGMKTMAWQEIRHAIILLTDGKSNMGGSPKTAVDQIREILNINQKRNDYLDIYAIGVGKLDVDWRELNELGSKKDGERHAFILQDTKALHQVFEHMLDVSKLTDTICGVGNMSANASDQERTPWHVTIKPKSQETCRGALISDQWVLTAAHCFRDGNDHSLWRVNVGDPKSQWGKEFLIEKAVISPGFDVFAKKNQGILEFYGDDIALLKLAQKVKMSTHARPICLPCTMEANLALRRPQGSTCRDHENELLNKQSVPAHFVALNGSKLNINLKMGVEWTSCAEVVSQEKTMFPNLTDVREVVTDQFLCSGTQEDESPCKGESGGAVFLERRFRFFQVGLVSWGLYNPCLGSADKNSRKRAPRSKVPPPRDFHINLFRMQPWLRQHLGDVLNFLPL

T3: human complement C2 (human, UniProt P06681 21-752)
T3 construct: Recombinant full-length human C2 with C-terminal 8x His tag, purified from Expi293F supernatant; also called human C2; huC2
T3 sequence: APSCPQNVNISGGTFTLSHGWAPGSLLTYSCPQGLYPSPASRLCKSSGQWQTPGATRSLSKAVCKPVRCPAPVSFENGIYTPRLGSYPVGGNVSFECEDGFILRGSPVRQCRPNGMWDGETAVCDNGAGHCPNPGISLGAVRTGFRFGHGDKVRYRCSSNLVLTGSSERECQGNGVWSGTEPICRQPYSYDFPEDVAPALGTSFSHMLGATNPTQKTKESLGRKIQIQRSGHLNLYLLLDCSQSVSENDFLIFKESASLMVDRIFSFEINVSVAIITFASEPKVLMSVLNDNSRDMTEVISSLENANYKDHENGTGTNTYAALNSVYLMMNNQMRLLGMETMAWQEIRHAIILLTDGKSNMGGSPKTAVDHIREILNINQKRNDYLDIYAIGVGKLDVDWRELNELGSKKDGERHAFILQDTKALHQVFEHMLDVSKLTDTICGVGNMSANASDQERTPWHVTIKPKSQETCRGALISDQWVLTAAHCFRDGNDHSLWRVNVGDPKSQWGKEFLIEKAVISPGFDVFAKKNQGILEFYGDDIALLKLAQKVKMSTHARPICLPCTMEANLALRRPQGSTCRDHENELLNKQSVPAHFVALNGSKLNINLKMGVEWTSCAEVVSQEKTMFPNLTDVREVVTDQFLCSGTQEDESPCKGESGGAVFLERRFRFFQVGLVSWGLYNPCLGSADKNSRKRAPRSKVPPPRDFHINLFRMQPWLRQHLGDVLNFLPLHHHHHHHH

B1: RF16-191G (antibody, V domains shown)
VH: EVQLLESGGGLVQPGGSLRLSCAASGFTFSKYWMGWVRQAPGKGLEWVSSIYSSGGWTYYADSVKGRFTISRDNSKNTLYLQMNSLRAEDTAVYYCARRPRSFSGSYYRAFDIWGQGTMVTVSS
VL: DIQMTQSPSSLSASVGDRVTITCRASQSITDYLNWYQQKPGKAPKLLIYAASSLQSGVPSRFSGSGSGTDFTLTISSLQPEDFATYYCQQSYSSSITFGQGTRLDLKR
B2: RF16-214G (antibody, V domains shown)
VH: EVQLLESGGGLVQPGGSLRLSCAASGFTFSWYQMMWVRQAPGKGLEWVSRIYPSGGGTAYADSVKGRFTISRDNSKNTLYLQMNSLRAEDTAVYYCARDAGYGDNWGQGTLVTVSS
VL: SYELTQPPSVSVSPGQTASITCSGDKLGEKYASWYQQKPGQSPVLVIYQDRKRPSGIPERFSGSNSGNTATLTISGTQAMDEADYYCQAWDTRAVVFGGGTKLTVLG
B3: RF16-226G (antibody)
heavy: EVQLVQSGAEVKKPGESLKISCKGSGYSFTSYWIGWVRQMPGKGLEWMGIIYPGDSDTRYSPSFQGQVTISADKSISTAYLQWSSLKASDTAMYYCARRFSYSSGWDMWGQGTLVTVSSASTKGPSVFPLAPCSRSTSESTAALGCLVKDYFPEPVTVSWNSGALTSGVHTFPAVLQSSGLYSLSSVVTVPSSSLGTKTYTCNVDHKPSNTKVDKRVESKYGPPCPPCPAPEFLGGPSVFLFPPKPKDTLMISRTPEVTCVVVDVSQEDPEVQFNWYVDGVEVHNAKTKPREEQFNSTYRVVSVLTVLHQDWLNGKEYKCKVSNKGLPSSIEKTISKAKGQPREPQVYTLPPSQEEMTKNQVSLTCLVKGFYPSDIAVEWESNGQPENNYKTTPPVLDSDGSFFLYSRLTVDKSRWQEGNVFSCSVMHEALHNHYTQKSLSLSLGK
light: SYELTQPPSVSVSPGQTARITCSGDALTSKYVAWYQQKSGQAPVLVIYEDTRRPSGIPERFSGSSSGTMATLTISGAQVEDEADYYCYSTDASGHQRVFGGGTKLTVLGQPKAAPSVTLFPPSSEELQANKATLVCLISDFYPGAVTVAWKADSSPVKAGVETTTPSKQSNNKYAASSYLSLTPEQWKSHRSYSCQVTHEGSTVEKTVAPTECS
B4: RF16-242 (antibody, V domains shown)
VH: EVQLLQSGAEVKKPGESLKISCKGSGYSFTSYWIGWVRQMPGKGLEWMGIIYPGDSDTRYSPSFQGQVTISADKSISTAYLQWSSLKASDTAMYYCARRGHYGDYFDYWGQGTLVTVSS
VL: SYELTQPPSVSVSPGQTARITCSGDALPKKYAYWYHQKSGQAPVLVIYEDRRRPSEIPERFSGSSSGTMATLTITGAQVEDEGVYFCYSRDRAGNQRVFGGGTQLTVLG
B5: RF16-242G (antibody, V domains shown)
VH: EVQLVQSGAEVKKPGESLKISCKGSGYSFTSYWIGWVRQMPGKGLEWMGIIYPGDSDTRYSPSFQGQVTISADKSISTAYLQWSSLKASDTAMYYCARRGHYGDYFDYWGQGTLVTVSS
VL: SYELTQPPSVSVSPGQTARITCSGDALPKKYAYWYQQKSGQAPVLVIYEDRRRPSGIPERFSGSSSGTMATLTISGAQVEDEADYYCYSRDRAGNQRVFGGGTQLTVLG
notes: Germlined version of RF16-242
B6: RF16-203G (antibody, V domains shown)
VH: EVQLLESGGGLVQPGGSLRLSCAASGFTFSRYYMMWVRQAPGKGLEWVSSIGSSGGTTNYADSVKGRFTISRDNSKNTLYLQMNSLRAEDTAVYYCAKGGMVLGVVNIWGQGTLVTVSS
VL: SYELTQPPSVSVSPGQTASITCSGDKLGEKYVSWYQQKPGQSPVLVIYQDIKRPSGIPERFSGSNSGNTATLTISGTQAMDEADYYCQTWGTGGIQVFGGGTKLTVLG

Key:
mouse C2 = biological target: T1, mouse C2; test: SPR, mouse C2, pH 7.3; VWB = very weak binding, KD not determined
cynomolgus monkey C2 [1] = biological target: T2, cynomolgus monkey C2; test: SPR, mAb captured, cyno C2 analyte, pH 7.3
Protocol: (§1) Surface plasmon resonance (SPR, Biacore) was used for all binding affinity analyses. In brief, goat anti-human IgG was directly immobilised onto the carboxymethyl dextran surface of CM5 sensorchips to approximately 12,000 RU using standard NHS/EDC chemistry at pH 5. The immobilised antibody surface was pre-conditioned with ten injections of polyclonal human IgG (Privigen 60 s) prepared at 1 μg/mL. Ligands (anti-C2 mAbs) were captured at the beginning of each cycle as described below. An adjacent spot or flow cell in which only Polyclonal IgG was capture was used as a reference surface. The goat anti-human IgG Fc antibody surface was regenerate in 100 mM H3PO4, injected for 45 seconds at the end of each cycle. Experiments were performed at 37° C. and the flow rate of each experiment was kept constant at 30 μL/min.
(§2) In addition to human C2, the pH dependent anti-C2 antibodies were also tested for their ability to bind to C2 from other mammalian species using the SPR methods described above in order to identify suitable surrogate species for in vivo testing. The antibodies were tested for binding at neutral pH against C2 from cynomolgus monkeys, mice, dogs, rabbits, rats, pigs, and sheep.

cynomolgus monkey C2 [2] = biological target: T2, cynomolgus monkey C2; test: cell-based or functional assay
cynomolgus monkey C2 [3] = biological target: T2, cynomolgus monkey C2; test: SPR, mAb captured, cyno C2 analyte, pH 6.0
Protocol: as §1, §2

human complement C2 [4] = biological target: T3, human complement C2; test: SPR, mAb captured, C2 analyte, HBS-EP, pH 6.0
Protocol: as §1
The pH dependent anti-C2 antibodies and their germlined versions were tested for their affinity to C2 at pH 7.3 (neutral pH) and pH 6.0 (early endosome pH) using the SPR methods described above in HBS-EP buffer.

human complement C2 [5] = biological target: T3, human complement C2; test: cell-based or functional assay
human complement C2 [6] = biological target: T3, human complement C2; test: SPR, mAb captured, C2 analyte, HBS-EP, pH 7.3
cynomolgus monkey C2 [7] = biological target: T2, cynomolgus monkey C2; test: cell-based or functional assay; remark: listed apart in the source
human complement C2 [8] = biological target: T3, human complement C2; test: cell-based or functional assay; remark: listed apart in the source
human complement C2 [9] = biological target: T3, human complement C2; test: SPR, mAb captured, C2 analyte, MHAs buffer, pH 5.8, steady state
Protocol: as §1
(§3) This buffer contains ammonium sulfate instead of sodium chloride.

human complement C2 [10] = biological target: T3, human complement C2; test: SPR, mAb captured, C2 analyte, MHAs buffer, pH 6.0, steady state
Protocol: as §1, §3

human complement C2 [11] = biological target: T3, human complement C2; test: SPR, mAb captured, C2 analyte, MHAs buffer, pH 7.3
Protocol: as §1, §3

Row | Binder | binding result (mouse C2) | Kd (cynomolgus monkey C2 [1]) | IC50, inhibition of cynomolgus classical complement pathway (Wieslab assay) (cynomolgus monkey C2 [2]) | IC50, inhibition of cynomolgus lectin complement pathway (Wieslab assay) (cynomolgus monkey C2 [2]) | Kd (cynomolgus monkey C2 [3]) | Kd (human complement C2 [4]) | IC50, inhibition of human classical complement pathway (Wieslab assay) (human complement C2 [5]) | IC50, inhibition of human lectin complement pathway (Wieslab assay) (human complement C2 [5]) | Kd (human complement C2 [6]) | IC50, inhibition of cyno classical pathway (hemolysis assay) (cynomolgus monkey C2 [7]) | IC50, inhibition of human classical pathway (hemolysis assay) (human complement C2 [8]) | Kd (human complement C2 [9]) | Kd (human complement C2 [10]) | Kd (human complement C2 [11]) | IC50, inhibition of cyno classical pathway (hemolysis assay), mean of three experiments (cynomolgus monkey C2 [7])
1 | B1 | binds | 35.7 nM | 8.73 nM | 42.9 nM | 87.3 nM | 13 nM | 1.64 nM | 1.62 nM | 18.9 nM | 213 nM | 94 nM | – | – | – | –
2 | B2 | binds | 41.5 nM | 135 nM | 223 nM | 111 nM | 53.9 nM | 20.3 nM | 6.4 nM | 25.1 nM | 396 nM | 337 nM | 3340 nM | 1480 nM | 176 nM | –
3 | B3 | binds | 4.7 nM | 8.24 nM | 66.5 nM | 114 nM | 128 nM | 5.58 nM | 3.25 nM | 10 nM | – | 230 nM | 4060 nM | 1900 nM | 45.6 nM | 176 nM
4 | B4 | – | 5.2 nM | 8.97 nM | 91.1 nM | 134 nM | 16 nM | 9.19 nM | 2.91 nM | 7 nM | 642 nM | 55.4 nM | 32000 nM | 11600 nM | 460 nM | –
5 | B5 | binds | 4.4 nM | 19.3 nM | 275 nM | 132 nM | 14 nM | 26.3 nM | 3.19 nM | 6.7 nM | 302 nM | 80.3 nM | 47000 nM | 12000 nM | 558 nM | –
6 | B6 | binds | 485 nM | 14100 nM | 5780 nM | – | – | 2030 nM | 33.2 nM | 506 nM | – | – | – | – | – | –
